Article PMC10847457 (Cell Discovery, 2024)

B1: PW5-535 (antibody, V domains shown)
VH: EVRLVESGGGLVQPGGSLRLSCAASGFTFRNYDIHWVRQTTGKGLEWVSAVGTSGDTYYLDSVKGRFTISREDAKKSVYLQMNSLRAGDTAMYYCVRGDASPDNIYYYMDVWGTGTRVIVSS
VL: DIQVTQSPSPLSASVGDRVTITCRASQTIGKYLNWYHQIPGKAPKLLISAASTLHSGVPSRFSGRGSGTDFTLTISSLQPEDFGTYYCQQSYSSPPWTFGQGTKVEIK
B2: PW5-570 (antibody, V domains shown)
VH: QMQLVQSGPEVRKPGTSVKVSCRASVFSFDTSAVQWVRQARGQPLEWIGWIVFGSSNTDYAQKFRDRVTITGDMSTGTAYMELSSLRSEDTAVYYCAAPHCNRTNCHDGFDIWGQGTVVTVSS
VL: EIVLTQSPGTLSLSPGERATLSCRASQSVRSGYLGWYQQKPGQAPRLLIYGAYNRATGIPDRFRGSGSGTDFTLTISRLEPEDFVVYYCQQYDRSPWTFGQGTKVEIK
notes: also called PW5-570 IgG; PW5-570 immunoglobulin G
B3: PW5-5 (antibody, V domains shown)
VH: QVQLVQSGAEVKKPGASVKVSCKTSGYTFTDHYMYWVRQAPGQGLEWMGVINPDAGSVTYAQKFQGRVTMTSDTSTSTVYMELSSLRSEDTAVYYCARDLFFIPAANSFDYWGQGTLVTVSS
VL: EIVLTQSPATLSLSPGERATLSCRASQSVSSYLAWYQQKPGQAPRLLIYDATNRATGIPARFSGSGSGTDFTLTISSLEPEDFAVYYCQHRSNWPRMFTFGQGTKLEIK
notes: also called PW5-5 IgG; IgG PW5-5

Columns and labels:
[1] = molecular target: T1, SARS-CoV-2 NTD (aa 1-305) (SARS-CoV-2, UniProt P0DTC2); test: ELISA; conditions: both partners purified
T1 construct: source: Expi293 cells, transient transfection (pCMV3), purified

[2] = molecular target: T2, SARS-CoV-2 RBD (aa 319-541) (SARS-CoV-2, UniProt P0DTC2); test: ELISA; conditions: both partners purified
T2 construct: source: Expi293 cells, transient transfection (pCMV3), purified

Binder	binding result [1]	binding result [2]
B1	no binding	binds
B2	no binding	binds
B3	no binding	binds
